Measurements as given in article PMC3656785.

Assays:
[1] = target: VipB fused to the zinc finger DNA-binding domain of murine Zif268; details: parent: est. 680; read off a plot
[2] = target: VipB on the GAL4 DNA-binding domain (pGBKT7) (V. cholerae); assay: two-hybrid

In the case of “VipA fused to the ω subunit of E. coli RNAP L113A”, the response [1] was 490 Miller units.
For “VipA fused to the ω subunit of E. coli RNAP P111A”, the response [1] was 590 Miller units.
For “VipA fused to the ω subunit of E. coli RNAP Q109A”, the response [1] was 630 Miller units.
“VipA fused to the ω subunit of E. coli RNAP D104A; V106A; V110A” showed a response [1] of 120 Miller units.
In the case of “VipA fused to the ω subunit of E. coli RNAP S108A”, the response [1] was 720 Miller units.
With “VipA fused to the ω subunit of E. coli RNAP D104A; V106A; V110A; L113A” the response [1] was 90 Miller units.
Substance “VipA D104A/V106A/V110A fused to the GAL4 activation domain (pGADT7) (natural protein)” has a relative β-gal activity [2] of 48.8%.
In the case of “VipA fused to the ω subunit of E. coli RNAP Q109A; V110I”, the response [1] was 710 Miller units.
For “VipA fused to the GAL4 activation domain (pGADT7) (natural protein)”, the relative β-gal activity [2] was 100%.
Work on “VipA fused to the ω subunit of E. coli RNAP D104A” yielded a response [1] of 460 Miller units.
“VipA fused to the ω subunit of E. coli RNAP V110A; L113A” was tested, and the response [1] was 120 Miller units.
For “VipA D104A/V106A fused to the GAL4 activation domain (pGADT7) (natural protein)”, the relative β-gal activity [2] was 64.1%.
Work on “VipA fused to the ω subunit of E. coli RNAP V110A” yielded a response [1] of 430 Miller units.
Work on “VipA fused to the ω subunit of E. coli RNAP V106A” yielded a response [1] of 460 Miller units.
In the case of “VipA fused to the ω subunit of E. coli RNAP E112A”, the response [1] was 720 Miller units.
In the case of “VipA V110A fused to the GAL4 activation domain (pGADT7) (natural protein)”, the relative β-gal activity [2] was 74.6%.
With “VipA fused to the ω subunit of E. coli RNAP D104A; V106A” the response [1] was 230 Miller units.
“VipA V106A fused to the GAL4 activation domain (pGADT7) (natural protein)” gave a relative β-gal activity [2] of 92.4%.
With “VipA D104A fused to the GAL4 activation domain (pGADT7) (natural protein)” the relative β-gal activity [2] was 92.7%.
